B1: D2-57 IgG1 (antibody, V domains shown)
VH: EVQLLESGGGLVQPGGSLRLSCAASGFTFSRYVMWWVRQAPGKGLEWVSYIWPSGGNTYYADSVKGRFTISRDNSKNTLYLQMNSLRAEDTAVYYCASSYDFWSNAFDIWGQGTMVTVSS
VL: DIQMTQSPSSLSASVGDRVTITCRASQSIGSYLNWYQQKTGKAPKALIYAASSLQSGVPSRFSGSGSGTDFTLTISSLQLEDFATYYCQQSYSTPSFGQGTKVEIKR
B2: D2-57 Fab (Fab, V domains shown)
VH: EVQLLESGGGLVQPGGSLRLSCAASGFTFSRYVMWWVRQAPGKGLEWVSYIWPSGGNTYYADSVKGRFTISRDNSKNTLYLQMNSLRAEDTAVYYCASSYDFWSNAFDIWGQGTMVTVSS
VL: DIQMTQSPSSLSASVGDRVTITCRASQSIGSYLNWYQQKTGKAPKALIYAASSLQSGVPSRFSGSGSGTDFTLTISSLQLEDFATYYCQQSYSTPSFGQGTKVEIKR

What was measured:
[1] = target: whole LFA-1 in which the α subunit contains an I-domain in the high affinity locked open state, on cells (HA cells) (human) (UniProt P05107); test: cell-based or functional assay
[2] = target: whole LFA-1 in which the α subunit contains an I-domain in the high affinity locked open state, on cells (HA cells) (human) (UniProt P05107); test: inhibition of ICAM binding to HA cells, Guava analysis; first experiment; first experiment
[3] = target: whole LFA-1 in which the α subunit contains an I-domain in the high affinity locked open state, on cells (HA cells) (human) (UniProt P05107); test: inhibition of ICAM binding to HA cells, Guava analysis; third experiment; third experiment
[4] = target: whole LFA-1 in which the α subunit contains an I-domain in the high affinity locked open state, on cells (HA cells) (human) (UniProt P05107); test: inhibition of ICAM binding to HA cells, Guava analysis; fourth experiment; fourth experiment
[5] = target: whole LFA-1 in which the α subunit contains an I-domain in the high affinity locked open state, on cells (HA cells) (human) (UniProt P05107); test: inhibition of ICAM binding to HA cells, Guava analysis; second experiment; second experiment, first lot of D2-57 IgG
[6] = target: whole LFA-1 in which the α subunit contains an I-domain in the high affinity locked open state, on cells (HA cells) (human) (UniProt P05107); test: inhibition of ICAM binding to HA cells, Guava analysis; second experiment; second experiment, second lot of D2-57 IgG
[7] = target: whole LFA-1 in which the α subunit contains an I-domain in the low affinity locked closed state, on cells (LA cells) (human) (UniProt P05107); test: phage ELISA, LA form of LFA-1, with Mg2+
[8] = target: whole LFA-1 in which the α subunit contains an I-domain in the low affinity locked closed state, on cells (LA cells) (human) (UniProt P05107); test: phage ELISA, LA form of LFA-1, without Mg2+
[9] = target: whole LFA-1 in which the α subunit contains an I-domain in the high affinity locked open state, on cells (HA cells) (human) (UniProt P05107); test: phage ELISA, HA form of LFA-1, with Mg2+; phage ELISA on HA cells, with Mg2+
[10] = target: whole LFA-1 in which the α subunit contains an I-domain in the high affinity locked open state, on cells (HA cells) (human) (UniProt P05107); test: phage ELISA, HA form of LFA-1, without Mg2+; phage ELISA on HA cells, without Mg2+; signal at background
[11] = target: whole LFA-1 in which the α subunit contains an I-domain in the high affinity locked open state, on cells (HA cells) (human) (UniProt P05107); test: ICAM-1 blocking assay on HA cells, soluble Fab, flow cytometry; ligand ICAM-1/SV-PE; soluble Fab, ICAM-1 blocking on HA cells, FACS

| Binder | IC50 for inhibition of HA cell binding to keratinocytes [1] | IC50 [2] | IC50 [3] | IC50 [4] | IC50 [5] | IC50 [6] | ELISA signal (arbitrary units) [7] | ELISA signal (arbitrary units) [8] | ELISA signal (arbitrary units) [9] | ELISA signal (arbitrary units) [10] | IC50 [11] |
| --- | --- | --- | --- | --- | --- | --- | --- | --- | --- | --- | --- |
| B1 | 1 nM | 0.18 nM | 0.24 nM | 0.68 nM | 0.59 nM | 0.62 nM |  |  |  |  |  |
| B2 |  |  |  |  |  |  | 0.13 | 0.07 | 0.68 | 0.09 | 11.5 nM |

Reference: patent publication US20080069777A1
